Assay results published in patent US20160272683A1 (Novo Nordisk, published 2016).
Blank lines part the entries; values can stand above or below the binder they belong to. Numbered stars: 1 amine (or outer) side, 2 acyl side, 3 side chain; on linkers, the order of the positions; unused ones are H or OH. Ends that are not written are not given here. * marks the point of attachment. C20 diacid = O=C(O)CCCCCCCCCCCCCCCCCCC(=O)*; γGlu = O=C(O)[C@H](CCC(=O)[*:2])N[*:1]

Experiments:
[1] = target: T1, human amylin 3(a) receptor (human calcitonin receptor co-expressed with RAMP-3) on BHK570/CRE-luc cells (human, UniProt P30988 25-474; O60896 24-148); assay: cell-based or functional assay
T1 sequence (looked up) 1: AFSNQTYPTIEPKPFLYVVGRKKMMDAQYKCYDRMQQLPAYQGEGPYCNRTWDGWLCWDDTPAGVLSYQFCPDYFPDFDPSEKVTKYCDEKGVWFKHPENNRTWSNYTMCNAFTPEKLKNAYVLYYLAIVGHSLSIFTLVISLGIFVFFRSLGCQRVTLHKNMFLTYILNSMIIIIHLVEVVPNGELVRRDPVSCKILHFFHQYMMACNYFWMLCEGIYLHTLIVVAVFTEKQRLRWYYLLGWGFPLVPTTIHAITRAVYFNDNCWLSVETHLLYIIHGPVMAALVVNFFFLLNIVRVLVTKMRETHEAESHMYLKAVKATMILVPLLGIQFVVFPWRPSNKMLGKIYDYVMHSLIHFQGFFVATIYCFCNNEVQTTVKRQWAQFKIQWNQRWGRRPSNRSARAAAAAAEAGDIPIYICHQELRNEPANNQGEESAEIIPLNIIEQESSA
T1 sequence (looked up) 2: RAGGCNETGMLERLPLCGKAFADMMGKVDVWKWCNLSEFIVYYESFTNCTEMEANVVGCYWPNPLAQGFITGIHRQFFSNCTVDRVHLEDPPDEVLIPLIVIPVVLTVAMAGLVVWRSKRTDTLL

[2] = target: T2, human calcitonin receptor on BHK570/CRE-luc cells (human, UniProt P30988 25-474); assay: cell-based or functional assay
T2 sequence (looked up): T1 sequence (looked up) 1

[3] = target: T3, human amylin receptor (human calcitonin receptor + human RAMP3) (human) (UniProt P30988); assay: whole-cell competition vs 125I-rat amylin (Assay Va)
T3 sequence (looked up) 1: T1 sequence (looked up) 1
T3 sequence (looked up) 2: T1 sequence (looked up) 2

IC50 [3]: 0.511 nM
Binder: EASELSTAALGRLSAELHELATLPRTETGPESP-NH2 [mimylin]

hAmylin-R funct. EC50 (pM), tested with HSA [1]: 44 pM
hCTR funct. EC50 (pM), tested with HSA [2]: 50 pM
B5: [N-terminal(C20 diacid-gGlu), des1, 2L, 4Q, 8L, 9V, 15Q, 16R, 19R, 21Q, 23Y, 27Q, 30S, 31Q, 32T, 33Y]mimylin (peptide)
peptide: {C20 diacid-γGlu}-LSQLSTLVLGRLSQRLHRLQTYPRTQTGSQTY-NH2
SMILES: CC(C)C[C@H](NC(=O)CC[C@H](NC(=O)CCCCCCCCCCCCCCCCCCC(=O)O)C(=O)O)C(=O)N[C@@H](CO)C(=O)N[C@@H](CCC(N)=O)C(=O)N[C@@H](CC(C)C)C(=O)N[C@@H](CO)C(=O)N[C@H](C(=O)N[C@@H](CC(C)C)C(=O)N[C@H](C(=O)N[C@@H](CC(C)C)C(=O)NCC(=O)N[C@@H](CCCNC(=N)N)C(=O)N[C@@H](CC(C)C)C(=O)N[C@@H](CO)C(=O)N[C@@H](CCC(N)=O)C(=O)N[C@@H](CCCNC(=N)N)C(=O)N[C@@H](CC(C)C)C(=O)N[C@@H](Cc1c[nH]cn1)C(=O)N[C@@H](CCCNC(=N)N)C(=O)N[C@@H](CC(C)C)C(=O)N[C@@H](CCC(N)=O)C(=O)N[C@H](C(=O)N[C@@H](Cc1ccc(O)cc1)C(=O)N1CCC[C@H]1C(=O)N[C@@H](CCCNC(=N)N)C(=O)N[C@H](C(=O)N[C@@H](CCC(N)=O)C(=O)N[C@H](C(=O)NCC(=O)N[C@@H](CO)C(=O)N[C@@H](CCC(N)=O)C(=O)N[C@H](C(=O)N[C@@H](Cc1ccc(O)cc1)C(N)=O)[C@@H](C)O)[C@@H](C)O)[C@@H](C)O)[C@@H](C)O)C(C)C)[C@@H](C)O

hAmylin-R funct. EC50 (pM), tested with HSA [1]: 185 pM
hCTR funct. EC50 (pM), tested with HSA [2]: 99 pM
B6: [N-terminal(C20 diacid-gGlu), des1, 4G, 9V, 15Q, 21Q, 23aQ, 23bT, 23cY, 30S, 31Q, 32T, 33Y]mimylin (peptide)
peptide: {C20 diacid-γGlu}-ASGLSTAVLGRLSQELHELQTLQTYPRTETGSQTY-NH2
SMILES: CC(C)C[C@H](NC(=O)CNC(=O)[C@H](CO)NC(=O)[C@H](C)NC(=O)CC[C@H](NC(=O)CCCCCCCCCCCCCCCCCCC(=O)O)C(=O)O)C(=O)N[C@@H](CO)C(=O)N[C@H](C(=O)N[C@@H](C)C(=O)N[C@H](C(=O)N[C@@H](CC(C)C)C(=O)NCC(=O)N[C@@H](CCCNC(=N)N)C(=O)N[C@@H](CC(C)C)C(=O)N[C@@H](CO)C(=O)N[C@@H](CCC(N)=O)C(=O)N[C@@H](CCC(=O)O)C(=O)N[C@@H](CC(C)C)C(=O)N[C@@H](Cc1c[nH]cn1)C(=O)N[C@@H](CCC(=O)O)C(=O)N[C@@H](CC(C)C)C(=O)N[C@@H](CCC(N)=O)C(=O)N[C@H](C(=O)N[C@@H](CC(C)C)C(=O)N[C@@H](CCC(N)=O)C(=O)N[C@H](C(=O)N[C@@H](Cc1ccc(O)cc1)C(=O)N1CCC[C@H]1C(=O)N[C@@H](CCCNC(=N)N)C(=O)N[C@H](C(=O)N[C@@H](CCC(=O)O)C(=O)N[C@H](C(=O)NCC(=O)N[C@@H](CO)C(=O)N[C@@H](CCC(N)=O)C(=O)N[C@H](C(=O)N[C@@H](Cc1ccc(O)cc1)C(N)=O)[C@@H](C)O)[C@@H](C)O)[C@@H](C)O)[C@@H](C)O)[C@@H](C)O)C(C)C)[C@@H](C)O

The remaining lines, values behind:

B1: [N-terminal(C20 diacid-gGlu), des1, 4Q, 9V, 15Q, 16R, 19R, 21Q, 23Y, 27Q, 30S, 31Q, 32T, 33Y]mimylin (peptide)
peptide: {C20 diacid-γGlu}-ASQLSTAVLGRLSQRLHRLQTYPRTQTGSQTY-NH2
SMILES: CC(C)C[C@H](NC(=O)[C@H](CCCNC(=N)N)NC(=O)CNC(=O)[C@H](CC(C)C)NC(=O)[C@@H](NC(=O)[C@H](C)NC(=O)[C@@H](NC(=O)[C@H](CO)NC(=O)[C@H](CC(C)C)NC(=O)[C@H](CCC(N)=O)NC(=O)[C@H](CO)NC(=O)[C@H](C)NC(=O)CC[C@H](NC(=O)CCCCCCCCCCCCCCCCCCC(=O)O)C(=O)O)[C@@H](C)O)C(C)C)C(=O)N[C@@H](CO)C(=O)N[C@@H](CCC(N)=O)C(=O)N[C@@H](CCCNC(=N)N)C(=O)N[C@@H](CC(C)C)C(=O)N[C@@H](Cc1c[nH]cn1)C(=O)N[C@@H](CCCNC(=N)N)C(=O)N[C@@H](CC(C)C)C(=O)N[C@@H](CCC(N)=O)C(=O)N[C@H](C(=O)N[C@@H](Cc1ccc(O)cc1)C(=O)N1CCC[C@H]1C(=O)N[C@@H](CCCNC(=N)N)C(=O)N[C@H](C(=O)N[C@@H](CCC(N)=O)C(=O)N[C@H](C(=O)NCC(=O)N[C@@H](CO)C(=O)N[C@@H](CCC(N)=O)C(=O)N[C@H](C(=O)N[C@@H](Cc1ccc(O)cc1)C(N)=O)[C@@H](C)O)[C@@H](C)O)[C@@H](C)O)[C@@H](C)O
hAmylin-R funct. EC50 (pM), tested with HSA [1]: 37 pM
hCTR funct. EC50 (pM), tested with HSA [2]: 50 pM

B2: [N-terminal(C20 diacid-gGlu), des1, 4G, 9V, 12K, 15Q, 21Q, 23Y, 25P, 30S, 31G, 32T, 33Y]mimylin (peptide)
peptide: {C20 diacid-γGlu}-ASGLSTAVLGKLSQELHELQTYPPTETGSGTY-NH2
SMILES: CC(C)C[C@H](NC(=O)CNC(=O)[C@H](CO)NC(=O)[C@H](C)NC(=O)CC[C@H](NC(=O)CCCCCCCCCCCCCCCCCCC(=O)O)C(=O)O)C(=O)N[C@@H](CO)C(=O)N[C@H](C(=O)N[C@@H](C)C(=O)N[C@H](C(=O)N[C@@H](CC(C)C)C(=O)NCC(=O)N[C@@H](CCCCN)C(=O)N[C@@H](CC(C)C)C(=O)N[C@@H](CO)C(=O)N[C@@H](CCC(N)=O)C(=O)N[C@@H](CCC(=O)O)C(=O)N[C@@H](CC(C)C)C(=O)N[C@@H](Cc1c[nH]cn1)C(=O)N[C@@H](CCC(=O)O)C(=O)N[C@@H](CC(C)C)C(=O)N[C@@H](CCC(N)=O)C(=O)N[C@H](C(=O)N[C@@H](Cc1ccc(O)cc1)C(=O)N1CCC[C@H]1C(=O)N1CCC[C@H]1C(=O)N[C@H](C(=O)N[C@@H](CCC(=O)O)C(=O)N[C@H](C(=O)NCC(=O)N[C@@H](CO)C(=O)NCC(=O)N[C@H](C(=O)N[C@@H](Cc1ccc(O)cc1)C(N)=O)[C@@H](C)O)[C@@H](C)O)[C@@H](C)O)[C@@H](C)O)C(C)C)[C@@H](C)O
hAmylin-R funct. EC50 (pM), tested with HSA [1]: 154 pM
hCTR funct. EC50 (pM), tested with HSA [2]: 62 pM

B3: [N-terminal(C20 diacid-gGlu), 2L, 4G, 8L, 9V, 15Q, 21Q, 23Y, 27G, 30S, 31G, 32T, 33Y]mimylin (peptide)
peptide: {C20 diacid-γGlu}-ELSGLSTLVLGRLSQELHELQTYPRTGTGSGTY-NH2
SMILES: CC(C)C[C@H](NC(=O)CNC(=O)[C@H](CO)NC(=O)[C@H](CC(C)C)NC(=O)[C@H](CCC(=O)O)NC(=O)CC[C@H](NC(=O)CCCCCCCCCCCCCCCCCCC(=O)O)C(=O)O)C(=O)N[C@@H](CO)C(=O)N[C@H](C(=O)N[C@@H](CC(C)C)C(=O)N[C@H](C(=O)N[C@@H](CC(C)C)C(=O)NCC(=O)N[C@@H](CCCNC(=N)N)C(=O)N[C@@H](CC(C)C)C(=O)N[C@@H](CO)C(=O)N[C@@H](CCC(N)=O)C(=O)N[C@@H](CCC(=O)O)C(=O)N[C@@H](CC(C)C)C(=O)N[C@@H](Cc1c[nH]cn1)C(=O)N[C@@H](CCC(=O)O)C(=O)N[C@@H](CC(C)C)C(=O)N[C@@H](CCC(N)=O)C(=O)N[C@H](C(=O)N[C@@H](Cc1ccc(O)cc1)C(=O)N1CCC[C@H]1C(=O)N[C@@H](CCCNC(=N)N)C(=O)N[C@H](C(=O)NCC(=O)N[C@H](C(=O)NCC(=O)N[C@@H](CO)C(=O)NCC(=O)N[C@H](C(=O)N[C@@H](Cc1ccc(O)cc1)C(N)=O)[C@@H](C)O)[C@@H](C)O)[C@@H](C)O)[C@@H](C)O)C(C)C)[C@@H](C)O
hAmylin-R funct. EC50 (pM), tested with HSA [1]: 565 pM
hCTR funct. EC50 (pM), tested with HSA [2]: 852 pM

B4: [N-terminal(C20 diacid-gGlu), des1, 4G, 9T, 15Q, 21Q, 23Y, 25P, 30S, 31G, 32T, 33Y]mimylin (peptide)
peptide: {C20 diacid-γGlu}-ASGLSTATLGRLSQELHELQTYPPTETGSGTY-NH2
SMILES: CC(C)C[C@H](NC(=O)CNC(=O)[C@H](CO)NC(=O)[C@H](C)NC(=O)CC[C@H](NC(=O)CCCCCCCCCCCCCCCCCCC(=O)O)C(=O)O)C(=O)N[C@@H](CO)C(=O)N[C@H](C(=O)N[C@@H](C)C(=O)N[C@H](C(=O)N[C@@H](CC(C)C)C(=O)NCC(=O)N[C@@H](CCCNC(=N)N)C(=O)N[C@@H](CC(C)C)C(=O)N[C@@H](CO)C(=O)N[C@@H](CCC(N)=O)C(=O)N[C@@H](CCC(=O)O)C(=O)N[C@@H](CC(C)C)C(=O)N[C@@H](Cc1c[nH]cn1)C(=O)N[C@@H](CCC(=O)O)C(=O)N[C@@H](CC(C)C)C(=O)N[C@@H](CCC(N)=O)C(=O)N[C@H](C(=O)N[C@@H](Cc1ccc(O)cc1)C(=O)N1CCC[C@H]1C(=O)N1CCC[C@H]1C(=O)N[C@H](C(=O)N[C@@H](CCC(=O)O)C(=O)N[C@H](C(=O)NCC(=O)N[C@@H](CO)C(=O)NCC(=O)N[C@H](C(=O)N[C@@H](Cc1ccc(O)cc1)C(N)=O)[C@@H](C)O)[C@@H](C)O)[C@@H](C)O)[C@@H](C)O)[C@@H](C)O)[C@@H](C)O
hAmylin-R funct. EC50 (pM), tested with HSA [1]: 173 pM
hCTR funct. EC50 (pM), tested with HSA [2]: 77 pM

B7: [N-terminal(C20 diacid-gGlu), des1, 2L, 4G, 9V, 15Q, 21Q, 23Y, 30S, 31Q, 32T, 33Y]mimylin (peptide)
peptide: {C20 diacid-γGlu}-LSGLSTAVLGRLSQELHELQTYPRTETGSQTY-NH2
SMILES: CC(C)C[C@H](NC(=O)CC[C@H](NC(=O)CCCCCCCCCCCCCCCCCCC(=O)O)C(=O)O)C(=O)N[C@@H](CO)C(=O)NCC(=O)N[C@@H](CC(C)C)C(=O)N[C@@H](CO)C(=O)N[C@H](C(=O)N[C@@H](C)C(=O)N[C@H](C(=O)N[C@@H](CC(C)C)C(=O)NCC(=O)N[C@@H](CCCNC(=N)N)C(=O)N[C@@H](CC(C)C)C(=O)N[C@@H](CO)C(=O)N[C@@H](CCC(N)=O)C(=O)N[C@@H](CCC(=O)O)C(=O)N[C@@H](CC(C)C)C(=O)N[C@@H](Cc1c[nH]cn1)C(=O)N[C@@H](CCC(=O)O)C(=O)N[C@@H](CC(C)C)C(=O)N[C@@H](CCC(N)=O)C(=O)N[C@H](C(=O)N[C@@H](Cc1ccc(O)cc1)C(=O)N1CCC[C@H]1C(=O)N[C@@H](CCCNC(=N)N)C(=O)N[C@H](C(=O)N[C@@H](CCC(=O)O)C(=O)N[C@H](C(=O)NCC(=O)N[C@@H](CO)C(=O)N[C@@H](CCC(N)=O)C(=O)N[C@H](C(=O)N[C@@H](Cc1ccc(O)cc1)C(N)=O)[C@@H](C)O)[C@@H](C)O)[C@@H](C)O)[C@@H](C)O)C(C)C)[C@@H](C)O
hAmylin-R funct. EC50 (pM), tested with HSA [1]: 140 pM
hCTR funct. EC50 (pM), tested with HSA [2]: 73 pM
